Holding throughout (test): alanine scan, flow cytometry, HEK293-T;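 also: antibody binding to each alanine-substituted CD33 mutant expressed transiently in HEK293-T, read as fluorescence minus background, mean of duplicates, relative to wild-type CD33 set as 100%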
For experiment [1], the target named is human CD33 L270A (human, UniProt P20138 18-364).
Experiment [2] deals with human CD33 Q251A (human, UniProt P20138 18-364).
In experiment [3] the target is human CD33 L273A (human, UniProt P20138 18-364).
The target in experiment [4] is human CD33 P301A (human, UniProt P20138 18-364).
Experiment [5] deals with human CD33 E252A (human, UniProt P20138 18-364).
Experiment [6] concerns the target human CD33 G260A (human, UniProt P20138 18-364).
The target of experiment [7] is human CD33 T253A (human, UniProt P20138 18-364).
The target of experiment [8] is human CD33 R291A (human, UniProt P20138 18-364).
Experiment [9] concerns the target human CD33 T268A (human, UniProt P20138 18-364).
Experiment [10] addresses human CD33 L277A (human, UniProt P20138 18-364).
Experiment [11] addresses human CD33 G263A (human, UniProt P20138 18-364).
Experiment [12] has as its target human CD33 K312A (human, UniProt P20138 18-364).
The target of experiment [13] is human CD33 A293S (human, UniProt P20138 18-364).
Experiment [14] deals with human CD33 D246A (human, UniProt P20138 18-364).
In experiment [15] the target is human CD33 L271A (human, UniProt P20138 18-364).
The target in experiment [16] is human CD33 S195A (human, UniProt P20138 18-364).
The target of experiment [17] is human CD33 T191A (human, UniProt P20138 18-364).
The target in experiment [18] is human CD33 Q171A (human, UniProt P20138 18-364).
Experiment [19] addresses human CD33 H193A (human, UniProt P20138 18-364).
The target in experiment [20] is human CD33 S178A (human, UniProt P20138 18-364).
Experiment [21] has as its target human CD33 V196A (human, UniProt P20138 18-364).
Experiment [22] has as its target human CD33 L187A (human, UniProt P20138 18-364).
Experiment [23] has as its target human CD33 T240A (human, UniProt P20138 18-364).
In experiment [24] the target is human CD33 E224A (human, UniProt P20138 18-364).
Experiment [25] addresses human CD33 G172A (human, UniProt P20138 18-364).
Experiment [26] addresses human CD33 P175A (human, UniProt P20138 18-364).
Experiment [27] deals with human CD33 I176A (human, UniProt P20138 18-364).
Experiment [28] concerns the target human CD33 N237A (human, UniProt P20138 18-364).
Experiment [29] has as its target human CD33 A182S (human, UniProt P20138 18-364).
Experiment [30] addresses human CD33 V234A (human, UniProt P20138 18-364).
Experiment [31] addresses human CD33 G220A (human, UniProt P20138 18-364).
Experiment [32] has as its target human CD33 G188A (human, UniProt P20138 18-364).
For experiment [33], the target named is human CD33 P235A (human, UniProt P20138 18-364).
Experiment [34] concerns the target human CD33 Y233A (human, UniProt P20138 18-364).
Experiment [35] addresses human CD33 G207A (human, UniProt P20138 18-364).

This note sets out measurements from US20260242735A1 (UNIVERSIT T BASEL, published 2026).

human CD33 E252A, sequence (P20138 18-364 E252A limits assumed): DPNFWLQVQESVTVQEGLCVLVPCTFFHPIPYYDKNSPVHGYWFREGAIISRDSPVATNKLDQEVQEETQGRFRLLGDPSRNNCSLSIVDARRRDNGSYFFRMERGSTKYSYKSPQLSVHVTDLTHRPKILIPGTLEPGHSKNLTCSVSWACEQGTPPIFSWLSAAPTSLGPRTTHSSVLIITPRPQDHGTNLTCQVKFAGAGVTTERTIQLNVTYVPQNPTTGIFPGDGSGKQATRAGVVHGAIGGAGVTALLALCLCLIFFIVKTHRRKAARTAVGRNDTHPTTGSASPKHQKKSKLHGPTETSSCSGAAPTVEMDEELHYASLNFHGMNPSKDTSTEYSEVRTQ
human CD33 Q251A, sequence (P20138 18-364 Q251A limits assumed): as the sequence (P20138 18-364 E252A limits assumed) above, with Q234A, A235E counted along it
human CD33 R291A, sequence (P20138 18-364 R291A limits assumed): as the sequence (P20138 18-364 E252A limits assumed) above, with A235E, R274A counted along it
human CD33 L273A, sequence (P20138 18-364 L273A limits assumed): as the sequence (P20138 18-364 E252A limits assumed) above, with A235E, L256A counted along it
human CD33 G260A, sequence (P20138 18-364 G260A limits assumed): as the sequence (P20138 18-364 E252A limits assumed) above, with A235E, G243A counted along it
human CD33 L277A, sequence (P20138 18-364 L277A limits assumed): as the sequence (P20138 18-364 E252A limits assumed) above, with A235E, L260A counted along it
human CD33 K312A, sequence (P20138 18-364 K312A limits assumed): as the sequence (P20138 18-364 E252A limits assumed) above, with A235E, K295A counted along it
human CD33 A293S, sequence (P20138 18-364 A293S limits assumed): as the sequence (P20138 18-364 E252A limits assumed) above, with A235E, A276S counted along it
human CD33 L271A, sequence (P20138 18-364 L271A limits assumed): as the sequence (P20138 18-364 E252A limits assumed) above, with A235E, L254A counted along it
human CD33 T253A, sequence (P20138 18-364 T253A limits assumed): as the sequence (P20138 18-364 E252A limits assumed) above, with A235E, T236A counted along it
human CD33 P301A, sequence (P20138 18-364 P301A limits assumed): as the sequence (P20138 18-364 E252A limits assumed) above, with A235E, P284A counted along it
human CD33 T268A, sequence (P20138 18-364 T268A limits assumed): as the sequence (P20138 18-364 E252A limits assumed) above, with A235E, T251A counted along it
human CD33 D246A, sequence (P20138 18-364 D246A limits assumed): as the sequence (P20138 18-364 E252A limits assumed) above, with D229A, A235E counted along it
human CD33 G263A, sequence (P20138 18-364 G263A limits assumed): as the sequence (P20138 18-364 E252A limits assumed) above, with A235E, G246A counted along it
human CD33 L270A, sequence (P20138 18-364 L270A limits assumed): as the sequence (P20138 18-364 E252A limits assumed) above, with A235E, L253A counted along it
human CD33 E224A, sequence (P20138 18-364 E224A limits assumed): as the sequence (P20138 18-364 E252A limits assumed) above, with E207A, A235E counted along it
human CD33 A182S, sequence (P20138 18-364 A182S limits assumed): as the sequence (P20138 18-364 E252A limits assumed) above, with A165S, A235E counted along it
human CD33 S195A, sequence (P20138 18-364 S195A limits assumed): as the sequence (P20138 18-364 E252A limits assumed) above, with S178A, A235E counted along it
human CD33 N237A, sequence (P20138 18-364 N237A limits assumed): as the sequence (P20138 18-364 E252A limits assumed) above, with N220A, A235E counted along it
human CD33 T191A, sequence (P20138 18-364 T191A limits assumed): as the sequence (P20138 18-364 E252A limits assumed) above, with T174A, A235E counted along it
human CD33 P235A, sequence (P20138 18-364 P235A limits assumed): as the sequence (P20138 18-364 E252A limits assumed) above, with P218A, A235E counted along it
human CD33 H193A, sequence (P20138 18-364 H193A limits assumed): as the sequence (P20138 18-364 E252A limits assumed) above, with H176A, A235E counted along it
human CD33 Q171A, sequence (P20138 18-364 Q171A limits assumed): as the sequence (P20138 18-364 E252A limits assumed) above, with Q154A, A235E counted along it
human CD33 V196A, sequence (P20138 18-364 V196A limits assumed): as the sequence (P20138 18-364 E252A limits assumed) above, with V179A, A235E counted along it
human CD33 Y233A, sequence (P20138 18-364 Y233A limits assumed): as the sequence (P20138 18-364 E252A limits assumed) above, with Y216A, A235E counted along it
human CD33 L187A, sequence (P20138 18-364 L187A limits assumed): as the sequence (P20138 18-364 E252A limits assumed) above, with L170A, A235E counted along it
human CD33 G188A, sequence (P20138 18-364 G188A limits assumed): as the sequence (P20138 18-364 E252A limits assumed) above, with G171A, A235E counted along it
human CD33 T240A, sequence (P20138 18-364 T240A limits assumed): as the sequence (P20138 18-364 E252A limits assumed) above, with T223A, A235E counted along it
human CD33 S178A, sequence (P20138 18-364 S178A limits assumed): as the sequence (P20138 18-364 E252A limits assumed) above, with S161A, A235E counted along it
human CD33 P175A, sequence (P20138 18-364 P175A limits assumed): as the sequence (P20138 18-364 E252A limits assumed) above, with P158A, A235E counted along it
human CD33 G220A, sequence (P20138 18-364 G220A limits assumed): as the sequence (P20138 18-364 E252A limits assumed) above, with G203A, A235E counted along it
human CD33 G172A, sequence (P20138 18-364 G172A limits assumed): as the sequence (P20138 18-364 E252A limits assumed) above, with G155A, A235E counted along it
human CD33 G207A, sequence (P20138 18-364 G207A limits assumed): as the sequence (P20138 18-364 E252A limits assumed) above, with G190A, A235E counted along it
human CD33 I176A, sequence (P20138 18-364 I176A limits assumed): as the sequence (P20138 18-364 E252A limits assumed) above, with I159A, A235E counted along it
human CD33 V234A, sequence (P20138 18-364 V234A limits assumed): as the sequence (P20138 18-364 E252A limits assumed) above, with V217A, A235E counted along it

B1: Refmab #1 (antibody, V domains shown)
VH: EVQLVQSGAEVKKPGSSVKVSCKASGYTITDSNIHWVRQAPGQSLEWIGYIYPYNGGTDYNQKFKNRATLTVDNPTNTAYMELSSLRSEDTAFYYCVNGNPWLAYWGQGTLVTVSS
VL: DIQLTQSPSTLSASVGDRVTITCRASESLDNYGIRFLTWFQQKPGKAPKLLMYAASNQGSGVPSRFSGSGSGTEFTLTISSLQPDDFATYYCQQTKEVPWSFGQGTKVEVK
notes: The alanine scan used IgG or Fab; also called hP67.6
For the molecule B1, the “Mean % WT Binding” value was 102 % WT binding in [1]; 98.8 % WT binding in experiment [2]; 110 % WT binding in experiment [3]; 101 % WT binding in [4]; 98.8 % WT binding in experiment [5]; 81.9 % WT binding in experiment [6]. Besides, the “Mean % WT Binding” value in [7] came to 94.5 % WT binding; in [8], 97.8 % WT binding; in experiment [9] it was 102 % WT binding; in experiment [10], 85.5 % WT binding; in [11] it was 98.9 % WT binding; in [12], 83.8 % WT binding. The “Mean % WT Binding” value is 90.6 % WT binding in [13], 85.2 % WT binding in experiment [14] and 100 % WT binding in [15].

B2: Refmab #4 (antibody, V domains shown)
VH: QVQLVQSGAEVKKPGESVKVSCKASGYTFTNYGMNWVKQAPGQGLEWMGWINTYTGEPTYADKFQGRVTMTTDTSTSTAYMEIRNLGGDDTAVYYCARWSWSDGYYVYFDYWGQGTSVTVSS
VL: DIVMTQSPDSLTVSLGERTTINCKSSQSVLDSSTNKNSLAWYQQKPGQPPKLLLSWASTRESGIPDRFSGSGSGTDFTLTIDSPQPEDSATYYCQQSAHFPITFGQGTRLEIK
notes: In the alanine scan antibodies were used as IgG or Fab
As for B2, the “Mean % WT Binding” value in [16] stood at 112%; in experiment [17] it was 95.1%; in [18], 102%; in [19] it was 103%; in experiment [20], 101%; in experiment [21], 102%. In addition, the “Mean % WT Binding” value in experiment [22] was determined as 108%; in [23], 76.8%; in [24], 107%; in [25], 90.7%; in experiment [26], 106%; in experiment [27], 124%. Besides, the “Mean % WT Binding” value amounted to 72.9% in experiment [28]; 108% in experiment [29]; 107% in experiment [30]; 115% in experiment [31]; 91.3% in experiment [32]; 101% in experiment [33]. The “Mean % WT Binding” value in experiment [34] worked out at 98.5%; in experiment [35] it was 87.1%.

B3: Refmab #2 (antibody, V domains shown)
VH: QVQLVQSGAEVKKPGSSVKVSCKASGGTFSDYAISWVRQAPGQGLEWMGRIIPILGVADYAQKFQGRVTITADKSTRTAYMELSSLRSEDTAVYYCARNWADAFDIWGQGTMVTVSS
VL: DIQLTQSPSSLSASVGDRVTITCRASQGISSVLAWYQQKPGKAPKLLIYDASSLESGVPSRFSGSGSGTDFTLTISSLQPEDFATYYCQQFDSSITFGQGTKLEIK
notes: The alanine scan used IgG or Fab
As to B3, the “Mean % WT Binding” value in experiment [1] was 119 % WT binding; in experiment [2] it was 117 % WT binding; in experiment [3], 117 % WT binding; in [4], 91.8 % WT binding; in experiment [5], 116 % WT binding; in experiment [6] it was 105 % WT binding. The “Mean % WT Binding” value is 104 % WT binding in [7]; 122 % WT binding in experiment [8]; 107 % WT binding in [9]; 117 % WT binding in experiment [10]; 102 % WT binding in experiment [11]; 110 % WT binding in [12]. Also, the “Mean % WT Binding” value in experiment [13] turned out to be 114 % WT binding; in [14], 114 % WT binding; in experiment [15], 113 % WT binding.
